1 protein from article PMC7138851, “Quantitative assessment of the determinant structural differences between redox-active and inactive glutaredoxins” (Nature Communications, 2020) can be followed below.

Common to all, as to assay: purified protein, by the assay type
Holding throughout (set-up): GSSCys oxidoreductase assay, steady-state kinetics, coupled NADPH consumption at 340 nm, pH 8.0, 25 °C
Details in all cases: pH 8.0; 25.0 °C

Substrate in series [1]: N[C@@H](CCC(=O)N[C@@H](CS)C(=O)NCC(=O)O)C(=O)O
As for the experimental part: (§1) Steady-state kinetics of wild-type and mutant ScGrx7 and HsGrx5^C122S in the GSSCys and [compound left out] assays were determined spectrophotometrically by monitoring the consumption of NADPH at 340 nm and 25 °C using a thermostated Jasco V-650 UV/vis spectrophotometer[11],[19],[25]. Fresh stock solutions of NADPH, GSH, GR, and GSSCys or [compound left out] were prepared in assay buffer containing 0.1 M Tris/HCl, 1 mM EDTA, pH 8.0 before each experiment. Both assays were performed with 0.1 mM NADPH and 1 U/ml ScGR. The following final protein concentrations were used for Y110F/H/A (5–150 nM), D144A/K (10 nM), E147A/K (10 nM), R153A/E (25–50 nM), ScGrx7^WP (20 nM), ScGrx7^loop (up to 1.4 µM), ScGrx7^WP+loop (up 2.6 µM), HsGrx5^C122S (up to 15 µM), HsGrx5^RR (up to 12 µM), HsGrx5^loop (up to 1.6 µM), and HsGrx5^RR+loop (up to 4.0 µM). For the GSSCys assays, GSH was varied between 50 µM and 1.5 mM at fixed GSSCys concentrations (25, 50, 100, and 150 µM). NADPH, GSH, and GR were mixed in assay buffer before Grx was added and a baseline was recorded for 30 s. All GSSCys assays were started by the addition of GSSCys. The absorbance of a reference cuvette containing all components but no Grx was measured in parallel and subtracted from the obtained Grx activity. For the [compound left out] assays, GSH was varied between 100 µM and 2.0 mM at fixed concentrations of [compound left out] (0.18, 0.37, 0.55, and 0.74 mM). NADPH, GSH, and [compound left out] were preincubated in assay buffer for 2 min before GR was added and a baseline was recorded for 30 s. All [compound left out] assays were started by the addition of enzyme. Kinetic data were analyzed in Excel and SigmaPlot 13 by nonlinear and linear regression according to Michaelis–Menten, Lineweaver–Burk, Eadie–Hofstee, and Hanes theory[11],[19],[25]. 13 Supplementary Figure 7 Supplementary Figure 7 | GSSCys assay steady-state kinetics of ScGrx7 wild-type enzyme and D144X mutants. (a) Michaelis-Menten plots of the GSH-dependent reaction velocity at different initial concentrations of GSSCys. […]

Substrate in series [2]: N[C@@H](CCC(=O)N[C@@H](CSSC[C@H](N)C(=O)O)C(=O)NCC(=O)O)C(=O)O
As for the experimental part: as §1

Substrate in series [3]: N[C@@H](CCC(=O)N[C@@H](CS)C(=O)NCC(=O)O)C(=O)O
As for the experimental part:
as §1
The source holds these as a separate data set.

Substrate in series [4]: N[C@@H](CCC(=O)N[C@@H](CSSC[C@H](N)C(=O)O)C(=O)NCC(=O)O)C(=O)O
The protocol: as §1
The source holds these as a separate data set.

Substrate in series [5]: N[C@@H](CCC(=O)N[C@@H](CSSC[C@H](N)C(=O)O)C(=O)NCC(=O)O)C(=O)O
The protocol:
as §1
This is another data set of the same source.

Substrate in series [6]: N[C@@H](CCC(=O)N[C@@H](CSSC[C@H](N)C(=O)O)C(=O)NCC(=O)O)C(=O)O
As for the experimental part:
as §1
This is another data set of the same source.

B1: ScGrx7 (Saccharomyces cerevisiae S288C) (protein)
chain: SVNESITTHHPDSLVTFDNSGNAPGTHQSVHDTVNTQDKEAEEVDKNSGDAEFDAAAEYNKIMEQSPMIVFSKTGCPYSKKLKALLTNSYTFSPSYYVVELDRHEHTKELQDQIEKVTGRRTVPNVIIGGTSRGGYTEIAELHKNDELLDSFKKWSDGAFTVKANSQSESA
notes: E. coli XL1-Blue, pQE30; N-terminal MRGS(H)6 tag
Regarding B1, the Michaelis constant (Km) in series [1] was 244 ± 27.1 µM; in series [2], 155 ± 29.9 µM; in series [3], 744 µM; in series [4] it was 257 µM; in series [5] it was 266 ± 129 µM; in series [6], 320 ± 91 µM. Further, the kcat in series [1] turned out to be 68 ± 2.4 s⁻¹; in series [2], 114 ± 13 s⁻¹; in series [3], 206 s⁻¹; in series [5], 163 ± 54.8 s⁻¹; in series [6], 239 ± 54 s⁻¹. Also, the kcat/Km in series [1] came out at 279000 M⁻¹ s⁻¹; in series [2] it was 735000 M⁻¹ s⁻¹; in series [5], 612000 M⁻¹ s⁻¹; in series [6], 757000 M⁻¹ s⁻¹.

A word on the Km: it is the substrate concentration at which the rate is half of its maximum. By kcat is commonly meant the number of substrate molecules converted per active site and unit of time at saturation. Usually kcat/Km stands for the second-order rate constant that governs catalysis at low substrate concentration.
